Results taken from US8632989B1, “Mutant insulin degrading enzyme and methods of use” (University of Kentucky Research Foundation, priority 2011, dated 2014).
Numbering of substitutions follows the chain as printed. Names and notes keep the numbering of the source. Read-outs that look alike come from different tables or passages of the source.

Assays:
Abz-GGFLRKHGQ-EDDnp [1] = experiment: Activation by ATP of Abz-[…]-EDDnp hydrolysis, IDE and ATP binding site mutants; assay type: biochemical; details: 10 μM Abz-GGFLRKHGQ-EDDnp as substrate
Procedure: Activity was determined in 50 mM Tris-HCl, pH 7.4 with 10 μM Abz-[…]-EDDnp (SEQ ID NO:3) as substrate at the indicated concentrations of ATP (panel A), PPPi (panel B) or, TNP-ATP (panel C). Each reaction contained 0.5 μg of enzyme.
(§1) IDE activity was determined by measuring the increase in fluorescence that occurs when the enzyme cleaves the internally quenched fluorogenic substrate Abz-[…]-EDDnp (SEQ ID NO:3) at the R—K bond (Song et al., Journal of Biologial Chemistry 276, 1152-1155 (2001)). The reaction was followed on a SpectraMax Gemini XS fluorescence plate reader using an excitation and emission wavelengths of 318 nm and 419 nm, respectively. Initial velocities were determined using SoftMax Pro 4.0 and kinetic constants calculated using GraphPad Prism 4.0. ATPase activity was measured by following Pi release with acid-molybdate as described by Harder et al. (Harder et al., Biochemical Journal 298 (Pt 2), 395-401 (1994)).

[2] = TNP-ATP fluorescence measurements, IDE and ATP binding site mutants; details: 1.5 μM enzyme, 10 μM TNP-ATP, λexc=403 nm
Procedure: Fluorescence emission spectra were recorded on a Perkin-Elmer LS 55 Luminescence spectrometer with 1.5 μM of IDE, IDE^R429S or IDE^K898A,K899A,S901A in 50 mM Tris-HCl, pH 7.4 with 10 μM TNP-ATP. Fluorescence spectra were recorded with a λexc=403 nm.
TNP-ATP [2′,3′-O-(2,4,6-Trinitrophenyl)adenosine-5′-triphosphate] fluorescence was monitored at excitation and emission wavelengths of 403 nm and 547 nm, respectively, using a Perkin-Elmer LS55 Luminescence Spectrometer at 20±0.1° C. TNP-ATP (Molecular Probes, Inc.) as supplied was diluted to 4 mM with 50 mM Tris-HCl, pH 7.4, and added to achieve the indicated concentrations.

Abz-GGFLRKHGQ-EDDnp [3] = experiment: Enzyme activity assay, kinetics of IDE and ATP binding site mutants with fluorogenic substrate; assay type: biochemical; details: Abz-GGFLRKHGQ-EDDnp as substrate
Procedure: Reactions were conducted in 50 mM Tris-HCl, pH 7.4.
as §1

[4] = Fluorescence measurements of TNP-ATP binding, wild type rIDE and distal site mutants; details: hyperbolic one site binding fit, 20 °C
Procedure: The fluorescence increase on binding of (2,4,6-trinitrophenyl)ATP (TNP-ATP) is plotted for the indicated IDE constructs as a function of ligand concentration. Data were fit to a hyperbolic one site binding mechanism.
Fluorescence emission spectra of 10 μM TNP-ATP in […] Tris-HCl, pH7.4, was measured in the presence of 1.5 μM of each wild type IDE and the indicated IDE distal mutants. Fluorescence spectra were recorded with a λexc=403 nm on a Perkin-Elmer LS55 Luminescence Spectrometer.
Fluorescence measurements of TNP-ATP binding were performed on a Perkin-Elmer LS55 Luminescence Spectrometer. Titrations were monitored at an excitation wavelength of 403 nm and emission wavelength of 547 nm. The temperature of the sample was maintained at 20±0.1° C. by circulating thermostatically controlled water through the cuvette holder. Assays were conducted in 200 μL reaction mixtures containing 50 mM Tris-HCl, pH, 7.4, 10 μM Abz-[…]-EDDnp (SEQ ID NO:3) as substrate, and 0.5 μg wild type rIDE, 2.3 μg rIDE-V3605, 2.0 μg rIDE-I3745 or 1.62 μg rIDEY609F and the indicated concentration of ATP. The fluorescence of TNP-ATP was subtracted from the total fluorescence of enzyme+TNP-ATP to yield specific fluorescence enhancement (ΔF).

Abz-GGFLRKHGQ-EDDnp [5] = experiment: Activation by ATP, wild type rIDE and distal site mutants; assay type: biochemical; details: 10 μM Abz-GGFLRKHGQ-EDDnp as substrate
Procedure: (§2) FIG. 17. Effects of distal site mutations. (A) Comparison of the kinetics of wild type IDE with the distal site mutants. Activity was measured with varying amounts of Abz-[…]-EDDnp (SEQ ID NO:3) substrate as indicated. Either hyperbolic (Michaelis-Menten equation) or sigmoidal curves (Hill equation) were fit to the data. (B) Effect of bradykinin on the activity of wild type IDE and the distal site mutants. (C) Activation of wild type IDE and distal site mutants by ATP. Relative activity is the fold activation above the level of the wild type enzyme alone.
(§3) The activity of IDE was measured by following the increase in fluorescence upon hydrolysis at the L-R bond of the fluorogenic peptide Abz-[…]-EDDnp (SEQ ID NO:3) on a SpectraMax Gemini XS fluorescence plate reader using an excitation wavelength of 318 nm and emission wavelength of 419 nm. Reactions were carried out in 200 μl volumes containing 50 mM Tris-HCl, pH 7.4, 1.92 μg of wild type rIDE, 4.6 μg of rIDE-V360S, 4.3 μg rIDE-I374S, or 1.63 μg of rIDE-Y609F. For measurements of activation by bradykinin, IDE activity was determined with 10 μM Abz-[…]-EDDnp (SEQ ID NO:3) as substrate in 50 mM Tris-HCl buffer, pH 7.4. The amount of protein was 0.5 μg for wild type rIDE and 5 μg for each of the IDE distal-site mutants. Data were analyzed using Softmax 4.0 (Molecular Devices) and kinetic parameters calculated with Prism (Graphpad Software). […] Under these assay conditions, both wild type and mutant rIDE are almost completely dimeric.
Fluorescence measurements of TNP-ATP binding were performed on a Perkin-Elmer LS55 Luminescence Spectrometer. Titrations were monitored at an excitation wavelength of 403 nm and emission wavelength of 547 nm. The temperature of the sample was maintained at 20±0.1° C. by circulating thermostatically controlled water through the cuvette holder. […] The fluorescence of TNP-ATP was subtracted from the total fluorescence of enzyme+TNP-ATP to yield specific fluorescence enhancement (ΔF).

Abz-GGFLRKHGQ-EDDnp [6] = experiment: Enzyme activity assay, kinetics of wild type rIDE and distal site mutants with fluorogenic substrate; assay type: biochemical; details: rat IDE, Abz-GGFLRKHGQ-EDDnp as substrate; for Vmax: 50 mM Tris-HCl, pH 7.4
Procedure: as §2, §3

Abz-GGFLRKHGQ-EDDnp [7] = biological target: T1, Abz-GGFLRKHGQ-EDDnp
T1 chain: GGFLRKHGQ

B1: IDE^R429S: Rat IDE residues 41-1019 bearing the mutation R429S; ATP binding site mutant (protein, listed as Rattus norvegicus)
chain: MRNGLVWLLHPALPSTLHSILGARPPPVKRLCGFPKQIYSTMNNPAIQRIEDHIVKSPEDKREYRGLELANGIKVLLISDPTTDKSSAALDVHIGSLSDPPNIPGLSHFCEHMLFLGTKKYPKENEYSQFLSEHAGSSNAFTSGEHTNYYFDVSHEHLEGALDRFAQFFLCPLFDASCKDREVNAVDSEHEKNVMNDAWRLFQLEKATGNPKHPFSKFGTGNKYTLETRPNQEGIDVREELLKFHSTYYSSNLMAICVLGRESLDDLTNLVVKLFSEVENKNVPLPEFPEHPFQEEHLKQLYKIVPIKDIRNLYVTFPIPDLQQYYKSNPGHYLGHLIGHEGPGSLLSELKSKGWVNTLVGGQKEGARGFMFFIINVDLTEEGLLHVEDIILHMFQYIQKLRAEGPQEWVFQECKDLNAVAFRFKDKESPRGYTSKIAGKLHYYPLNGVLTAEYLLEEFRPDLIDMVLDKLRPENVRVAIVSKSFEGKTDRTEQWYGTQYKQEAIPEDVIQKWQNADLNGKFKLPTKNEFIPTNFEILALEKDATPYPALIKDTAMSKLWFKQDDKFFLPKACLNFEFFSPFAYVDPLHCNMAYLYLELLKDSLNEYAYAAELAGLSYDLQNTIYGMYLSVKGYNDKQPILLKKITEKMATFEIDKKRFEIIKEAYMRSLNNFRAEQPHQHAMYYLRLLMTEVAWTKDELKEALDDVTLPRLKAFIPQLLSRLHIEALLHGNITKQAALGVMQMVEDTLIEHAHTKPLLPSQLVRYREVQLPDRGWFVYQRRNEVHNNCGIEIYYQTDMQSTSENMFLELFCQIISEPCFNTLRTKEQLGYIVFSGPRRANGIQGLRFIIQSEKPPHYLESRVEAFLITMEKAIEDMTEEAFQKHIQALAIRRLDKPKKLSAECAKYWGEIISQQYNYDRDNIEVAYLKTLSKDDIIKFYKEMLAVDAPRRHKVSVHVLAREMDSCPVVGEFPSQNDINLSEAPPLPQPEVIHNMTEFKRGLPLFPLVKPHINFMAAKL
modifications: wild-type Insulin Degrading Enzyme (IDE) from rat
Abz-GGFLRKHGQ-EDDnp [1]
  level of activation by ATP, of the wild type value: about 15%
[2]
  fluorescence associated with TNP-ATP binding, relative to wild type IDE: lower fluorescent yield
Abz-GGFLRKHGQ-EDDnp [3]
  kcat relative to wild-type IDE: essentially the same
Abz-GGFLRKHGQ-EDDnp [3]; rat IDE
  Hill coefficient: 1.7 ± 0.2
  Km: 21300 ± 2400 µM
  kcat: 0.0783 ± 0.005 s⁻¹
Abz-GGFLRKHGQ-EDDnp [3]; rat IDE, 50 mM Tris-HCl, pH 7.4
  Vmax: 42.3 ± 3.2 nmol/min/mg

B2: I374S: Rat IDE distal site mutant I374S (protein, UniProt P35559 1-1019, looked up, variant I374S)
Insulin-degrading enzyme: B1 chain with I374S, S429R
[4]
  Kd: 2100 ± 500 nM
Abz-GGFLRKHGQ-EDDnp [5]
  ATP activation: not significant
Abz-GGFLRKHGQ-EDDnp [6]
  Hill coefficient: 1.12
  Km: 8.5 ± 1.74 µM
  Vmax: 3.45 ± 0.22 nmol/min/mg
Abz-GGFLRKHGQ-EDDnp [6]; listed as Ile374Ser
  Hill coefficient: 1.12 ± 0.2

B3: Y609F: Rat IDE distal site mutant Y609F (protein, UniProt P35559 1-1019, looked up, variant Y609F)
Insulin-degrading enzyme: B1 chain with S429R, Y609F
[4]
  Kd: 2000 ± 300 nM
Abz-GGFLRKHGQ-EDDnp [5]
  ATP activation: not significant
Abz-GGFLRKHGQ-EDDnp [6]
  Hill coefficient: 1.04
  Km: 6.86 ± 1.18 µM
  Vmax: 2.6 ± 0.56 nmol/min/mg
Abz-GGFLRKHGQ-EDDnp [6]; listed as Tyr609Phe
  Hill coefficient: 1.04 ± 0.14

B4: V360S: Rat IDE distal site mutant V360S (protein, UniProt P35559 1-1019, looked up, variant V360S)
Insulin-degrading enzyme: B1 chain with V360S, S429R
[4]
  Kd: 3700 ± 800 nM
Abz-GGFLRKHGQ-EDDnp [5]
  ATP activation: 8 fold
Abz-GGFLRKHGQ-EDDnp [6]
  Hill coefficient: 1.07
  Km: 8.61 ± 0.81 µM
  Vmax: 2.01 ± 0.08 nmol/min/mg
Abz-GGFLRKHGQ-EDDnp [6]; listed as Val360Ser
  Hill coefficient: 1.07 ± 0.30

B5: rIDE-Y609F (protein)
chain: MNNPAIQRIEDHIVKSPEDKREYRGLELANGIKVLLISDPTTDKSSAALDVHIGSLSDPPNIPGLSHFCEHMLFLGTKKYPKENEYSQFLSEHAGSSNAFTSGEHTNYYFDVSHEHLEGALDRFAQFFLCPLFDASCKDREVNAVDSEHEKNVMNDAWRLFQLEKATGNPKHPFSKFGTGNKYTLETRPNQEGIDVREELLKFHSTYYSSNLMAICVLGRESLDDLTNLVVKLFSEVENKNVPLPEFPEHPFQEEHLKQLYKIVPIKDIRNLYVTFPIPDLQQYYKSNPGHYLGHLIGHEGPGSLLSELKSKGWVNTLVGGQKEGARGFMFFIINVDLTEEGLLHVEDIILHMFQYIQKLRAEGPQEWVFQECKDLNAVAFRFKDKERPRGYTSKIAGKLHYYPLNGVLTAEYLLEEFRPDLIDMVLDKLRPENVRVAIVSKSFEGKTDRTEQWYGTQYKQEAIPEDVIQKWQNADLNGKFKLPTKNEFIPTNFEILALEKDATPYPALIKDTAMSKLWFKQDDKFFLPKACLNFEFFSPFAYVDPLHCNMAYLYLELLKDSLNEYAFAAELAGLSYDLQNTIYGMYLSVKGYNDKQPILLKKITEKMATFEIDKKRFEIIKEAYMRSLNNFRAEQPHQHAMYYLRLLMTEVAWTKDELKEALDDVTLPRLKAFIPQLLSRLHIEALLHGNITKQAALGVMQMVEDTLIEHAHTKPLLPSQLVRYREVQLPDRGWFVYQRRNEVHNNCGIEIYYQTDMQSTSENMFLELFCQIISEPCFNTLRTKEQLGYIVFSGPRRANGIQGLRFIIQSEKPPHYLESRVEAFLITMEKAIEDMTEEAFQKHIQALAIRRLDKPKKLSAECAKYWGEIISQQYNYDRDNIEVAYLKTLSKDDIIKFYKEMLAVDAPRRHKVSVHVLAREMDSCPVVGEFPSQNDINLSEAPPLPQPEVIHNMTEFKRGLPLFPLVKPHINFMAAKL
bradykinin, P01042
Chain of bradykinin, P01042 (P01042 whole entry, looked up): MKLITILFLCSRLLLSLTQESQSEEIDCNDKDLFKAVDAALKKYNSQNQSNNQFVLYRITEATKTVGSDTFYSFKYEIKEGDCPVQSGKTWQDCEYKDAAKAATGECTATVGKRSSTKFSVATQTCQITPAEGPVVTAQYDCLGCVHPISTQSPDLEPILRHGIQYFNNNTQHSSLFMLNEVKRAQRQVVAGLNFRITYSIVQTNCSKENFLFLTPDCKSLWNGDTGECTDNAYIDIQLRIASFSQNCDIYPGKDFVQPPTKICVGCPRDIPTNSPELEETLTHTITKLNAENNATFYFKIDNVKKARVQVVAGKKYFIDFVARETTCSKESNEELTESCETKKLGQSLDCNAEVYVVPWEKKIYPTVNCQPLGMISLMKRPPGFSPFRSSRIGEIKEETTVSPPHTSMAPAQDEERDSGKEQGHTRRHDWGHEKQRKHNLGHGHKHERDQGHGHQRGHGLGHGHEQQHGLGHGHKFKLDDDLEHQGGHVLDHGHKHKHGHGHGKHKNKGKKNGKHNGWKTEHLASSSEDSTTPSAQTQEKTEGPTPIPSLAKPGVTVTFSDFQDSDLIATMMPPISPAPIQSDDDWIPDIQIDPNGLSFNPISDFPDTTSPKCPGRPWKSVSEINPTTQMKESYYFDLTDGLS
  Heterotropic activation of Abz-GGFLRKHGQ-EDDnp hydrolysis: is also lost in all three mutants
Abz-GGFLRKHGQ-EDDnp [7]
  Hill coefficient: 1.04
  Km: 6.86 µM
  Vmax: 2.6 nmol/min/mg

B6: rIDE-V360S (protein)
chain: B5 chain with V319S, F568Y
bradykinin, P01042
  Heterotropic activation of Abz-GGFLRKHGQ-EDDnp hydrolysis: is also lost in all three mutants
Abz-GGFLRKHGQ-EDDnp [7]
  Hill coefficient: 1.07
  Km: 8.61 µM
  Vmax: 2.01 nmol/min/mg

B7: rIDE-I374S (protein)
chain: B5 chain with I333S, F568Y
bradykinin, P01042
  Heterotropic activation of Abz-GGFLRKHGQ-EDDnp hydrolysis: is also lost in all three mutants
Abz-GGFLRKHGQ-EDDnp [7]
  Hill coefficient: 1.12
  Km: 8.5 µM
  Vmax: 3.45 nmol/min/mg
